One substance from PMC3553976 can be followed below.

The target in this assay is U2AF65 (UniProt P26368). As to the kind of experiment: NMR binding data. The settings on record: reference: non-phosphorylated SF1 construct; sites S80,S82.

Turning to “splicing factor 1 (SF1) (from UniProt Q15637) KIS-phosphorylated SF1 construct”, the “binding against the reference” value is given as “same”.
